Assay results from PMC7081908.
“And” between values parts separate entries of the source, which are not always exact repeats. Equal entries are not always repeated.

Molecular target: IgG-CD4 protein (fusion protein of human CD4 domains 1 and 2 with human IgG1 Fc at the C terminus) (human)
Test: BLI; Octet QKe; IgG-CD4 loaded onto protein G sensors at 20 ug/ml in ForteBio kinetics buffer; serial dilutions of gp120 (600 nM to 0.4 nM) in solution; Kd = koff/kon, 1:1 fitting model; two GMP lots of each gp120

| Substance | Kd |
| --- | --- |
| GMP-grade gp120 protein, HIV-1 clade B isolate JRFL (natural protein) | 7.44 nM and 4.87 nM |
| GMP-grade gp120 protein, HIV-1 clade AE consensus | 24.6 nM and 18.4 nM |
| GMP-grade gp120 protein, HIV-1 clade C isolate 93MW965.26 (natural protein) | 157 nM and 115 nM |
